Assay results reported in article PMC5297747.

Legend:
[1] = biological target: bovine α-chymotrypsin (bovine); test: progress curve of protease inhibition; 40 °C; buffer B (100 mM HEPES-NaOH pH 7.5, 200 mM NaCl, 10 mM CaCl2, 0.01% triton X-100, 0.1% glycerol); 1 mM Suc-AAPF-pNA or MeO-SucAAPV-pNA as substrate; various concentrations of Pnserpin; absorption at 410 nm; kass = kunc × (1 + [S]/KM)
[2] = biological target: bovine α-chymotrypsin (bovine)

“Pnserpin (from UniProt B1YBN4 1-393) (natural protein)” gave a kon [1] of 24600 M⁻¹ s⁻¹, a stoichiometry of inhibition (SI), incubation at 20 °C; residual protease activity [2] of 9.49 and a stoichiometry of inhibition (SI), incubation at 30 °C; residual protease activity [2] of 5.8. For the same substance, the stoichiometry of inhibition (SI), incubation at 40 °C; residual protease activity [2] was 4.76 and the stoichiometry of inhibition (SI), incubation at 50 °C; residual protease activity [2] was 2.21.
